# Experimental data as given in patent publication US20200317791A1 (published 2020).
# T1: peptide on HLA-C*06:02 (human)
# T1 peptide: TRATKMQVI
# B1: TCR-TRAT (TCR, V domains shown)
# Valpha: GEDVEQSLFLSVREGDSSVINCTYTDSSSTYLYWYKQEPGAGLQLLTYIFSNMDMKQDQRLTVLLNKKDKHLSLRIADTQTGDSAIYFCAESSNLSGNTPLVFGKGTRLSVIA
# Vbeta: AAGVIQSPRHLIKEKRETATLKCYPIPRHDTVYWYQQGPGQDPQFLISFYEKMQSDKGSIPDRFSAQQFSDYHSELNMSSLELGDSALYFCASGLAGITGELFFGEGSRLTVL
# Biological target: T1, peptide on HLA-C*06:02
# Test: activation reporter or marker
binder,measurement,value
B1,binding result,recognises
